# Source: patent US20230183353A1
# Legend:
# [1] = target: recombinant human FcγRIIIa (Phe) (human) (UniProt P08637); test: SPR (ProteOn), receptor immobilised on GLC chip by amine coupling, pH 7.4, 25 C
# [2] = target: recombinant human FcγRIIIa (Val) (human) (UniProt P08637); test: as above
# Chain of recombinant human FcγRIIIa (Val) (human) (P08637 17-208 F176V limits assumed): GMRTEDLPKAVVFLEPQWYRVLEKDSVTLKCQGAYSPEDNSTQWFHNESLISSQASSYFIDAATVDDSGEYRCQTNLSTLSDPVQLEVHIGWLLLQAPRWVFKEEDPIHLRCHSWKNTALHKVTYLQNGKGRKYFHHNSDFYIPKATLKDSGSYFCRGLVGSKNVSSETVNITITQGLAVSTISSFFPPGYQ
# Chain of recombinant human FcγRIIIa (Phe) (human) (P08637 17-208 limits assumed): as the sequence (P08637 17-208 F176V limits assumed) above, with V160F counted along it
substance,measurement,setting,value
Control molecule representing human IgG1 control (lacking substitutions of the present invention),Kd,[1],2200 nM
same,Kd,[2],1280 nM
